Measured values as given in patent US12630594B2, “Allergy antigen and epitope for same” (HOYU CO., LTD., priority 2017, dated 2026).

B1: Serotransferrin (protein)
chain: MKLLLVSALLGCFATVYAAPAEGMVRWCVKSEKELKKCHDLAANVAGFSCVRRDDSLECIQAIKREEADAITLDGGDIYIAGLHNYNLQPIIAEDYGEDSDTCYYAVAVAKKGTEFGFLDLRGKKSCHTGLGKSAGWNIPIGTLVTVGQIQWAGIEDRPVESAVSDFFNASCAPGANRDSQLCQLCMGDCSRSHNEPYYDYSGAFQCLKDGAGEVAFIKHLTVPAAEKASYELLCKDNTRAPIDSYKTCHLARVPAHAVVSRKDPRLANLIYSKLMAVTNFNLFSSDGYAAKNLMFKDSTQNLVQLPMTTDSFLYLGAEYMSTIRSLTKAQATGVTSRAIKWCAVGHKEKVKCDAWTINSFTDGDSRIECQDAPTVDECIKKIMRKEADAIAVDGGEVFTAGKCGLVPVMVEQYDEVRCSAPGEASSYFAVAVAKRGSGLTWTTLKGKRSCHTGLGRTAGWNIPMGLIHRRTMNCDFTTYFSKGCAPGFEVDSPFCAQCKGSGKSVGGDGSKCKASSEEQYYGYNGAFRCLVEDAGDVAFIKHTIVPEMTDGSGPVWAQNLMSSDFELLCQDGTTKPVTHFRECHLAKVPAHAVITRPESRGEVVSILLEQQARFGSSGSDSSFNMFKPDFGKNLLFKDSTKCLQEIPSGTKFQGFLGEEYMIAMQSLRECSNSTSDLEKACTFHSC
modifications: Serotransferrin
B2: Alpha-1,4-glucan phosphorylase (protein)
chain: MSKPLSDHDRKKQISVRGLAGVENVAELKVAFNRHLHFTLVKDRNVASKRDYYFALANTVRDHLVGRWIRTQQYYYEKDPKRVYYISLEFYMGRTLQNTMVNLALENACDEAIYQLGLDMEELEDMEEDAGLGNGGLGRLAACFLDSMASLGLAAYGYGIRYEFGIFNQKIVNGWQVEEADDWLRYGNPWEKARPEYMRPVKFYGRTEHTPEGVKWVDTQVVLALPYDTPIPGYRNNIVNTMRLWSAKAPCDFNLKDFNVGGYIQAVLDRNLCENISRVLYPNDNFFEGKELRLKQEYFVVAATLQDIVRRFKASKFGSREIVRTDFAQLPNKVAIQLNDTHPAMAIPELMRVLVDEEKLEWDKAWDVCVRTCAYTNHTVLPEALERWPIDLFHHLLPRHLEIIYEINRRFLQYVASKFPGDNDRLRRMSLIEEGECKKVNMAHMCIVGSHAVNGVARIHSEILVATLFKDFYELDPHKFQNKTNGITPRRWLVMCNPGLAEVIAERIGEEFVRDLDQLKKLLKFIDDDAFIRDIAKVKQENKLKFAVHLEEHYKVKINPQSMFDFQVKRIHEYKRQLLNCLHMITYYNRIKKEPNKHWTPRTIMVGGKAAPGYHTAKMIIRLITAIGEVVNHDPVIGDRLKVIFLENYRVTLAEKAIPSADLSEQISTAGTEASGTGNMKFMLNGALTIGTMDGANVEMAEEAGEKNLFIFGMRVEEVDAMDAGKGYHASEYYNRIPELKQAMDQISGGFFSHKQPDLFKELVDLLMHHDRFKVFADYEAYIKSQDKVNELYKKPKEWTKMVIHNIAGCGKFSSDRTISQYAREIWGMEPSLEKIPAPDEQLK
modifications: Alpha-1,4 glucan phosphorylase
B3: EEF1A2 binding protein-like (protein)
chain: MWKKKSKLTDQTATGQVGIKKRSKVPGVMITQYVEKIPDGKSHPDFTRKPIALTIQEGKFAFFKALVIGDPEPTVTWGRNNGDVSDTSKYVTKYDPATREHLFEMANVKPEQADTYKCFAANEFGRAVVTVVLNVIEVGFKKAQADSQVQPEAAVADFKSVLKRKSKIQPKMEKKEDGEIDPRFWELLISADKKDYESLMLEFGVTDFRFMLKTLNEIKKEREEEQAQFIENLANLKPIEVGPDGCATFSIDMDLIEQSSRIFLYKDGVMIPYSKELGDTIKHSLKIVGRKYQFSIRDLFPDDAGLYQVDVEDVNVFSTDFKIPMVDFLVKIQECKAMEREDAVFECVLSQPFGKIMWVGKNLPLEAGDKYDIEVSEDKLIHRLIIKDVAMVDKGIYAAVAGIKSCNAFLVVEADKGEPGKKKQRKTTRAGGAGVDLTAIAQEQAVKNTADREVLKEKVKAINDERAANATAAPETSAEAKAKVKVVEASQTGAPKQGPAVKGSDHKSVDNEGYSIKSGLSDVFALRGKKGELVCEMSHEVDGAWFKDGEKLSTTDGIAIVKDGTRHTMTIHSSSEDDTGVYHIEAGGFKSEAKVTVGELPAIDADDLHKFSKPVTIKVGQNASWKMPYTPQDNLEVKWFKDGKELKDGGGVKLVKEVKHSRLLLRECLRSDAGEIKIQLKNPFGTIEATSRLIVLDKPGPPEGPVEILETTSTVIELQWGAPKDDGGSPVTNYIIERQQLGQTVWKKMGDVAADKTTYRDRNVVHGKLYIYNIYAVNPEGTSDALQTEETMAGVLIFAGRPGAPKVVSASKTCINLKWEPPEDDGGIKIDGYQLEKRKKDTAQWIALNPVTEPIEVLEYAVKDVVEGAEYEFRVSAINVSGAGEFSLPSVMVTAKNPNMRPTFKDPEDFMVIRAGNSVRIKVLYEAEPPPEITWMKDNEPVSSFIQIINTEGCSQLVIPSTKRSDSGNYTIVAKNKVGEASFDIEVLVTDEPKPPGAVELEQIVHGKVIVSWEASPDQELDNRLYYMVAEHDSSTRMWHTVADRIFDNSYTANNIMPGREYHFKIYAKNDMGMSDPSMSPTWGINSNRIPINTNTPVEVSFEKPPSVLVPLKMHSPPKGFQMYMTCAIRGCPTPSVTWHLNNVCINGDSNYYITNSYGVCSMYILRVRPKDAGEYKVVAVNSFGKAECSTKLVVKD
modifications: EEF1A2 binding protein-like

tested on: IgE antibody in the serum of a fish-allergic patient; assay: Immunoblotting of two-dimensional electrophoresis patterns of fish meat proteins with patient serum; type: binding, human; conditions: spots in two-dimensional electrophoresis gel of proteins in fish; patients diagnosed with immediate-type allergy
Description: Proteins contained in fish were analyzed by the aforementioned technique to identify antigens of an allergy to fish. To be specific, proteins were extracted from fish meat and subjected to two-dimensional electrophoresis under the conditions described below.
The electrophoresis in the first dimension was isoelectric focusing, which was performed using isoelectric focusing gels with a gel-strip length of 5 to 10 cm and a gel pH range of 3 to 10. The pH gradient of the gels in the direction of electrophoresis was as follows: with the total gel-strip length being taken as 1, the gel-strip length up to pH 5 was “a=0.15 to 0.3”, the gel-strip length from pH 5 to 7 was “b=0.4 to 0.7”, and the gel-strip length above pH 7 was “c=0.15 to 0.3”. More specifically, the isoelectric focusing was performed using the IPG gels, Immobiline Drystrip (pH3-10NL), produced by GE Healthcare Bio-Sciences Corporation (hereinafter abbreviated as “GE”). The electrophoresis system used was IPGphor produced by GE. The maximum current of the electrophoresis system was limited to 75 μA per gel strip. The voltage program adopted to perform the first-dimensional isoelectric focusing was as follows: (1) a constant voltage step was performed at a constant voltage of 300 V until the volt-hours reached 750 Vhr (the current variation width during electrophoresis for 30 minutes before the end of this step was 5 μA); (2) the voltage was increased gradually to 1000 V for 300 Vhr; (3) the voltage was further increased gradually to 5000 V for 4500 Vhr; and then (4) the voltage was held at a constant voltage of 5000 V until the total Vhr reached 12000.
The electrophoresis in the second dimension was SDS-PAGE, which was performed using polyacrylamide gels whose gel concentration at the distal end in the direction of electrophoresis was set to 3 to 6% and whose gel concentration at the proximal end was set to a higher value than that at the distal end. More specifically, the SDS-PAGE was performed using NuPAGE 4-12% Bris-Tris Gels (IPG well, Mini, 1 mm) produced by Life Technologies. The electrophoresis system used was XCell SureLock Mini-Cell produced by Life Technologies. The electrophoresis was run at a constant voltage of 200 V for about 45 minutes using an electrophoresis buffer composed of 50 mM MOPS, 50 mM Tris base, 0.1% (w/v) SDS and 1 mM EDTA.
Identification of antigens by immunoblotting was carried out by taking all the steps up to the step of “Second-dimensional SDS-PAGE” as described above in Example 1, followed by the steps of “Transfer to membrane”, “Immunoblotting” and “Analysis” as described below.
To be specific, proteins in the second-dimensional electrophoresis gels were transferred to a membrane (PVDF membrane) according to the following procedure. • (1) The PVDF membrane was immersed in 100% methanol followed by milliQ water, and then moved into the transfer buffer to hydrophilize the PVDF membrane. • (2) After sponge, filter paper, the second-dimensional electrophoresis gels treated by second-dimensional SDS-PAGE, the hydrophilized PVDF membrane, filter paper, and sponge were put in place in this order, the transfer system was energized at a constant voltage of 30 V for one hour. Immunoblotting
Immunoblotting of the membrane was carried out using, as a primary antibody, a serum sample from patient 1 with a fish allergy or a serum sample from a non-fish-allergic subject. This fish-allergic patient 1 was a patient diagnosed with immediate-type allergy to fish. […]

| Molecule | specific binding to IgE antibodies from fish-allergic patients |
| --- | --- |
| B1 | specific binding to IgE antibodies |
| B2 | specific binding to IgE antibodies |
| B3 | specific binding to IgE antibodies |
